Assay results from IntAct's records for PubMed 16061658.

B1: WW domain-containing oxidoreductase (Homo sapiens), Q9NZC7 (parent)
chain: MAALRYAGLDDTDSEDELPPGWEERTTKDGWVYYANHTEEKTQWEHPKTGKRKRVAGDLPYGWEQETDENGQVFFVDHINKRTTYLDPRLAFTVDDNPTKPTTRQRYDGSTTAMEILQGRDFTGKVVVVTGANSGIGFETAKSFALHGAHVILACRNMARASEAVSRILEEWHKAKVEAMTLDLALLRSVQHFAEAFKAKNVPLHVLVCNAATFALPWSLTKDGLETTFQVNHLGHFYLVQLLQDVLCRSAPARVIVVSSESHRFTDINDSLGKLDFSRLSPTKNDYWAMLAYNRSKLCNILFSNELHRRLSPRGVTSNAVHPGNMMYSNIHRSWWVYTLLFTLARPFTKSMQQGAATTVYCAAVPELEGLGGMYFNNCCRCMPSPEAQSEETARTLWALSERLIQERLGSQSG
B2: Receptor tyrosine-protein kinase erbB-4 (Mus musculus), Q61527 (parent)
chain: MKLATGLWVWGSLLMAAGTVQPSASQSVCAGTENKLSSLSDLEQQYRALRKYYENCEVVMGNLEITSIEHNRDLSFLRSIREVTGYVLVALNQFRYLPLENLRIIRGTKLYEDRYALAIFLNYRKDGNFGLQELGLKNLTEILNGGVYVDQNKFLCYADTIHWQDIVRNPWPSNMTLVSTNGSSGCGRCHKSCTGRCWGPTENHCQTLTRTVCAEQCDGRCYGPYVSDCCHRECAGGCSGPKDTDCFACMNFNDSGACVTQCPQTFVYNPTTFQLEHNFNAKYTYGAFCVKKCPHNFVVDSSSCVRACPSSKMEVEENGIKMCKPCTDICPKACDGIGTGSLMSAQTVDSSNIDKFINCTKINGNLIFLVTGIHGDPYNAIDAIDPEKLNVFRTVREITGFLNIQSWPPNMTDFSVFSNLVTIGGRVLYSGLSLLILKQQGITSLQFQSLKEISAGNIYITDNSNLCYYHTINWTTLFSTINQRIVIRDNRRAENCTAEGMVCNHLCSNDGCWGPGPDQCLSCRRFSRGKICIESCNLYDGEFREFENGSICVECDSQCEKMEDGLLTCHGPGPDNCTKCSHFKDGPNCVEKCPDGLQGANSFIFKYADQDRECHPCHPNCTQGCNGPTSHDCIYYPWTGHSTLPQHARTPLIAAGVIGGLFILVIMALTFAVYVRRKSIKKKRALRRFLETELVEPLTPSGTAPNQAQLRILKETELKRVKVLGSGAFGTVYKGIWVPEGETVKIPVAIKILNETTGPKANVEFMDEALIMASMDHPHLVRLLGVCLSPTIQLVTQLMPHGCLLDYVHEHKDNIGSQLLLNWCVQIAKGMMYLEERRLVHRDLAARNVLVKSPNHVKITDFGLARLLEGDEKEYNADGGKMPIKWMALECIHYRKFTHQSDVWSYGVTIWELMTFGGKPYDGIPTREIPDLLEKGERLPQPPICTIDVYMVMVKCWMIDADSRPKFKELAAEFSRMARDPQRYLVIQGDDRMKLPSPNDSKFFQNLLDEEDLEDMMDAEEYLVPQAFNIPPPIYTSRTRIDSNRSEIGHSPPPAYTPMSGNQFVYQDGGFATQQGMPMPYRATTSTIPEAPVAQGATAEMFDDSCCNGTLRKPVAPHVQEDSSTQRYSADPTVFAPERNPRGELDEEGYMTPMHDKPKQEYLNPVEENPFVSRRKNGDLQALDNPEYHSASSGPPKAEDEYVNEPLYLNTFANALGSAEYMKNSVLSVPEKAKKAFDNPDYWNHSLPPRSTLQHPDYLQEYSTKYFYKQNGRIRPIVAENPEYLSEFSLKPGTMLPPPPYRHRNTVV
partner: B1 chain

Variants of: B1
Conditions: with erbb4_mouse Erbb4, Q61527

effect of a mutation on the interaction	Variant
disrupting interaction	MAALRYAGLDDTDSEDELPPGWEERTTKDGWVRYANHTEEKTQWEHPKTGKRKRVAGDLPYGWEQETDENGQVFFVDHINKRTTYLDPRLAFTVDDNPTKPTTRQRYDGSTTAMEILQGRDFTGKVVVVTGANSGIGFETAKSFALHGAHVILACRNMARASEAVSRILEEWHKAKVEAMTLDLALLRSVQHFAEAFKAKNVPLHVLVCNAATFALPWSLTKDGLETTFQVNHLGHFYLVQLLQDVLCRSAPARVIVVSSESHRFTDINDSLGKLDFSRLSPTKNDYWAMLAYNRSKLCNILFSNELHRRLSPRGVTSNAVHPGNMMYSNIHRSWWVYTLLFTLARPFTKSMQQGAATTVYCAAVPELEGLGGMYFNNCCRCMPSPEAQSEETARTLWALSERLIQERLGSQSG [Y33R]

Variants of: B2
Conditions: with wwox_human WWOX, Q9NZC7

effect of a mutation on the interaction	Variant
disrupting interaction	Y1035A;Y1301A
